Results taken from patent US20120027769A1 (BHARAT SERUMS AND VACCINES, published 2012).
Several values for one entry are separate records, joined by “and”; a condition that tells them apart may be missing. Equal values may be shown once.

T1: Rhesus D antigen on RhD-positive human red blood cells (human, UniProt Q02161 2-417)
T1 sequence (looked up): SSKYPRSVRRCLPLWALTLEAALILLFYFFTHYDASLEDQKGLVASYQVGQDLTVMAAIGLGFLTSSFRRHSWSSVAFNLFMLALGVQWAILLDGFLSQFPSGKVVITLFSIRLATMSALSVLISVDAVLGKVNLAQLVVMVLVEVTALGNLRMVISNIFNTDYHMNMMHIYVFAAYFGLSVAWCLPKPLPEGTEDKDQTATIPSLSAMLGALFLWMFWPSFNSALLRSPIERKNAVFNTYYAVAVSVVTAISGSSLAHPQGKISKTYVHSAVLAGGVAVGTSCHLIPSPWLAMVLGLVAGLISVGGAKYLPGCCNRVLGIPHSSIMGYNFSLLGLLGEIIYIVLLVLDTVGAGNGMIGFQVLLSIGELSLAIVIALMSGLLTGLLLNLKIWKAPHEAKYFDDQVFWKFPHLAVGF


What was measured:
[1] = target: T1, Rhesus D antigen on RhD-positive human …; test: cell-based or functional assay
[2] = target: T1, Rhesus D antigen on RhD-positive human …; test: hemagglutination of bromelain-treated RhD-positive erythrocytes, Technicon Autoanalyzer, against the NIBSC polyclonal standard
Description: Briefly, bromelain-treated RhD positive red cells are incubated with various concentrations of anti-RhD antibodies. The cells are allowed to agglutinate over a period of time. The agglutinated cells are removed in the autoanalyzer and the rest of the erythrocytes are lysed using detergent. The optical density of the released hemoglobin is measured spectrophotometrically. The anti-D concentrations of the samples are calculated using a standard graph obtained from various concentrations of the Anti-D standard.

ADCC EC50 (ng of Active Ab/ml), Average [1] | ADCC EC50 (ng of Active Ab/ml), Experiment 1 [1] | ADCC EC50 (ng of Active Ab/ml), Experiment 2 [1] | Agglutination Titer (µg of Active Ab per mg of Protein) [2] | Binder
1.1 ng of Active Ab/ml and 0.7 ng of Active Ab/ml | 0.7 ng of Active Ab/ml and 0.4 ng of Active Ab/ml | 1.5 ng of Active Ab/ml and 0.9 ng of Active Ab/ml | – | anti-RhD monoclonal antibody RhD1 (antibody, human IgG1, lambda) heavy: not shown light: QSALTQPASVSGSPGQSITISCSGSSSDVGGYKYVSWYQQHPGKAPQLMIYDVNNRPSGVSNRFSGSKSGNTASLTISGLQAEDEADYYCSSYTSSSTRVFGGGTKLTVLGQPKAAPSVTLFPPSSEELQANKATLVCLISDFYPGAVTVAWKADSSPVKAGVETTTPSKQSNNKYAASSYLSLTPEQWKSHKSYSCQVTHEGSTVEKTVAPTECS
0.3 ng of Active Ab/ml | 0.1 ng of Active Ab/ml | 0.5 ng of Active Ab/ml | 303 µg of Active Ab per mg of Protein | RhD4 (IgG3 variant of RhD1: RhD1V3C heavy chain and RhD1 light chain) (antibody, IgG3, lambda chimera; The limits were converted from the nucleotide limits: variable region nt 58-448, constant region from nt 449; The NheI site was made by silent mutations only) heavy: QVQLVQSGAEVKKPGSSVKVSCKASGGIFRTYAISWVRQAPGQGLEWMGGIIPMFGTVNYAQKFQGRVTISADKSTSTAYMELSRLRSEDTAVYYCARPPSGGCGGDCSRRGYYYAMDVWGQGTTITVSSASTKGPSVFPLAPCSRSTSGGTAALGCLVKDYFPEPVTVSWNSGALTSGVHTFPAVLQSSGLYSLSSVVTVPSSSLGTQTYTCNVNHKPSNTKVDKRVELKTPLGDTTHTCPRCPEPKSCDTPPPCPRCPEPKSCDTPPPCPRCPEPKSCDTPPPCPRCPAPELLGGPSVFLFPPKPKDTLMISRTPEVTCVVVDVSHEDPEVQFKWYVDGVEVHNAKTKPREEQFNSTFRVVSVLTVLHQDWLNGKEYKCKVSNKALPAPIEKTISKTKGQPREPQVYTLPPSREEMTKNQVSLTCLVKGFYPSDIAVEWESSGQPENNYNTTPPMLDSDGSFFLYSKLTVDKSRWQQGNIFSCSVMHEALHNRFTQKSLSLSPGK light: QSALTQPASVSGSPGQSITISCSGSSSDVGGYKYVSWYQQHPGKAPQLMIYDVNNRPSGVSNRFSGSKSGNTASLTISGLQAEDEADYYCSSYTSSSTRVFGGGTKLTVLGQPKAAPSVTLFPPSSEELQANKATLVCLISDFYPGAVTVAWKADSSPVKAGVETTTPSKQSNNKYAASSYLSLTPEQWKSHKSYSCQVTHEGSTVEKTVAPTECS
0.3 ng of Active Ab/ml and 0.2 ng of Active Ab/ml | 0.2 ng of Active Ab/ml and 0.1 ng of Active Ab/ml | 0.3 ng of Active Ab/ml and 0.2 ng of Active Ab/ml | – | anti-RhD monoclonal antibody RhD3 (antibody, human IgG3, kappa, V domains shown) VH: QVTLKESGPVLVKPTETLTLTCTVSGFSLNNARMGVSWIRQPPGKALEWLAHIFSNDEKSYSTSLKSRLTISKDTSKSQVFLTMTNMDPVDTATYYCARTPITMVRGAIRLYYYYYMDVWGKGTTVTVSS VL: DIQVTQSPSSLSASVGDRVTINCRASQSIGTYLNWYQQKPGKAPNLLIYAASSLQSGVPSRFSGSGSGTDFTLTISSLQPEDFATYYCQQTYSTPTWTFGRGTKVEIKR
